{"source": "ChEMBL document CHEMBL2074219", "about": "“Cellular uptake mechanism of amino acid ester prodrugs in Caco-2/hPEPT1 cells overexpressing a human peptide transporter” (Pharm Res, 1998)", "proteins": {"B1": {"name": "Solute carrier family 15 member 1 (Homo sapiens), P46059 (protein)", "chain": "MGMSKSHSFFGYPLSIFFIVVNEFCERFSYYGMRAILILYFTNFISWDDNLSTAIYHTFVALCYLTPILGALIADSWLGKFKTIVSLSIVYTIGQAVTSVSSINDLTDHNHDGTPDSLPVHVVLSLIGLALIALGTGGIKPCVSAFGGDQFEEGQEKQRNRFFSIFYLAINAGSLLSTIITPMLRVQQCGIHSKQACYPLAFGVPAALMAVALIVFVLGSGMYKKFKPQGNIMGKVAKCIGFAIKNRFRHRSKAFPKREHWLDWAKEKYDERLISQIKMVTRVMFLYIPLPMFWALFDQQGSRWTLQATTMSGKIGALEIQPDQMQTVNAILIVIMVPIFDAVLYPLIAKCGFNFTSLKKMAVGMVLASMAFVVAAIVQVEIDKTLPVFPKGNEVQIKVLNIGNNTMNISLPGEMVTLGPMSQTNAFMTFDVNKLTRINISSPGSPVTAVTDDFKQGQRHTLLVWAPNHYQVVKDGLNQKPEKGENGIRFVNTFNELITITMSGKVYANISSYNASTYQFFPSGIKGFTISSTEIPPQCQPNFNTFYLEFGSAYTYIVQRKNDSCPEVKVFEDISANTVNMALQIPQYFLLTCGEVVFSVTGLEFSYSQAPSNMKSVLQAGWLLTVAVGNIIVLIVAGAGQFSKQWAEYILFAALLLVVCVIFAIMARFYTYINPAEIEAQFDEDEKKNRLEKSNPYFMSGANSQKQM"}}, "key": {"[1]": {"substrate": "CN(CC(=O)O)C(=O)CN", "assay": "TP_TRANSPORTER: uptake in PEPT1-overexpressing Caco-2 cells", "assay_type": "functional, cell-based"}, "[2]": {"substrate": "CN(CC(=O)O)C(=O)CN", "assay": "TP_TRANSPORTER: uptake in Caco-2 cells", "assay_type": "functional, cell-based"}}, "data": [{"protein": "B1", "values": [{"measurement": "Km", "setting": "[1]", "value": 2100, "unit": "µM"}, {"measurement": "Km", "setting": "[2]", "value": 700, "unit": "µM"}]}]}
